Laboratory results: the DeepSol protein solubility set

experiment: soluble on expression in E. coli; label from the status in PepcDB or PDB records

Question: Which “soluble on expression in E. coli” value does the source give for “MTKISERNIKVARKNVCKNIQRLNKKLSNKIKNEEAALPDIIAGTHGTPIEKLLTLYKLSDPIFTAIRPFTACRYGCSACCHYKVDLLPIEAELIAISLGQAPLPLPTTFQNGHGKRCPFLSKNGQCNIYSIRPMACRRHFMFTNSDYWCNPVHSEDIKIKMLGFSGIIEAYINIANQDGRYSPENIRDIRDYFTAGIDADVNARELDSELEHHHHHH” here?
Answer: not soluble

Question: Which “soluble on expression in E. coli” value does the source give for “MKLDDLNLFRQVVENGSYTAASRKTLIPVATITRRIQALEDSLDIRLLNRHARKLSLTEAGQKFYDECAPILATLVNTSEYLGEECRGAAGKLKIAAPSNLTKRMIQPILNKFMLLYPDISINLTMSNQPEQLDPTDWDIIFRVGKQRDSSLIARQIGSLEDILVASPSYLEKNSEPTHAQELHKHSLLKGNPLMRWRLTNKDGESVTITDAGRFEASELNVIRMACSNGLGITLMPDIMISQYLEEGSLIRVLSDWSANPRDIYMIYNYKDHQPEKVRLFIDFVSNHIPD” here?
Answer: not soluble

Question: Which “soluble on expression in E. coli” value does the source give for “MGHHHHHHSHMPLLVEGRRVRLPQSAGDLVRAHPPLEERARLLRGQSVQQVGPQGLLYVQQRELAVTSPKDGSISILGSDDATTCHIVVLRHTGNGATCLTHCDGTDTKAEVPLIMNSIKSFSDHAQCGRLEVHLVGGFSDDRQLSQKLTHQLLSEFDRQEDDIHLVTLCVTELNDREENENHFPVIYGIAVNIKTAEIYRASFQDRGPEEQLRAARTLAGGPMISIYDAETEQLRIGPYSWTPFPHVDFWLHQDDKQILENLSTSPLAEPPHFVEHIRSTLMFLKKHPSPAHTLFSGNKALLYKKNEDGLWEKISSPGS” here?
Answer: not soluble

Question: For “MLTLTAGKKAAMDRLSTQEGIISALAIDQRGALKKMIKALDVEPTDAQIETFKELVSKELTPYASAILLDPEYGLPAAKARDTEAGLLLAYEKTGYDATTPGRLPDLLADWSVLRLKEEGADAIKFLLYYDVDEDPEINHQKHVFIERLGSECAEEDLPFYLELVSYDAQIADATSLEYAKVKPHKVNEMMKEFSKPQYKVDVLKVEVPVNMNFVEGFAPAETAYTKEEAANYFLEQSQATDLPFIFLSAGVSTELFQETLRFAKEAGSTFNGVLCGRATWKNGVKPFVEAGETAACDWLKTEGRENIESLNEVIAATASSWHAKVQVNEG”, which “soluble on expression in E. coli” value is on record?
Answer: not soluble

Question: Which “soluble on expression in E. coli” value does the source give for “GSHMASMFGKLREKLKSFVKRVEEEVEKEEEEVEKKGLLDRILTVEIKEKDVDKALDELEIDLLEADVALEVVDALREKIKQKLVGKKVRIGTDKGKIIEEAVKEAVSEILETSRRIDLIEEIRKAEKPYVIMFVGFNGSGKTTTIAKLANWLKNHGFSVVIAASDTFRAGAIEQLEEHAKRIGVKVIKHSYGADPAAVAYDAIQHAKARGIDVVLIDTAGRSETNRNLMDEMKKIARVTKPNLVIFVGDALAGNAIVEQARQFNEAVKIDGIILTKLDADARGGAALSISYVIDAPILFVGVGQGYDDLRPFEKEWFLERIFGEENA” here?
Answer: soluble

Question: Which “soluble on expression in E. coli” value does the source give for “MAHHHHHHMQPKMTAPLTMKDNNKCLSVRVGSTLEIHLEGNPTTGYTWTRVGFVGKEMLSDEHLEVTSKYTPKPVSGSMVGAGGSYTVFVKPLRKGQHAVQLVYARPFEGPKPDNERYTLHLNVE” here?
Answer: soluble

Question: For “MGSDKIHHHHHHMKLTCMQEDLKRGLAAVGHAVAGKSTLPVLANILLATDEGRLKLTATNLEVGINRWISATITRDGAVAVPAKLLTDVVGGLPNDKVTLSLDQKTQTLRVECGRFVSNIKGVDADEFPSLPTVSAQTPLVSLPAEVWQEAIDQVAFAAATDESRPILTGVLVRTRDQQVTLVAADGFRLAMRTIQLSAPVAHAVDCLIPARTLSELARIIGDTDAEVAMVYTPGGSHVLFHTENIEVVSRLIEGRFPDFERIIPQQYLTRMVLDNSELAKAVKLASFFAGSSQNVVKLKIEPASELAPGRVVISANAAELGDNTSELDGSVTGEGGVIALNVRFLADAIAAVHSNQIAFEMQSAQSPAVFKPVGQDGYIHIVMPMSMR”, which “soluble on expression in E. coli” value is on record?
Answer: not soluble

Question: Which “soluble on expression in E. coli” value does the source give for “MGSDKIHHHHHHNGNGDKSLENWIWDAACSIRGAQEAAKYKDFILPLIFTKRLCDVFDDELNRIAEKVGSRAKAFKLVAMDHNLVRFYLPLQPQNPDDPVWSVIRKLSDKIGEKLTDYLREIAKANPLLNGIINRVDFNATTHGQRDLDDDRLSNLIEKISEKRLGLKDVEPDIIGRSYEYLIRKFAEGSGQSAGEFYTPKEVGLIMAKIMQPEPGMTIYDPCCGSAGLLIKCQLVLQESQGATEKFAPLQLYGQEYTPNTWAMANMNMIIHDMEGKIEIGDTFRHPKFMQAGKLAQFERVVANPMWNQKWFTEKDYDGDELGRFPKGAGYPGSSADWGWVQHILASLDKTGKAAIVLDTGAASRGSGNANKNKEKEVRKWFVEQDLIEGVIYLPQNLFYNTSAPGILLFLNRAKPKERQGKLFFINASLVFAKGDPKNYIPDEEIERIANTFLTWREEEKFSLIVYKDKIAHNDYNISPSRYIHITEEEDFRPIAEILEELEVLEKEAAETNK” here?
Answer: not soluble

Question: For “MSLCELLGMSANVPTDICFSFTGLMQRGGKTGPHRDGWGIAFYEGKGFRTFKDPNPSSQSKIAELVQQYPIKSRAVISHIRQANRGGVNLENTHPFTRELWGQYWTFAHNGQLTGYQNLVTGRHRPVGETDSELAFCWLLNQMEQCYPEGPQDWPEMLRYVAQCCDELRALGVFNMLLSNGEYVMAYCTNHLYWITRRAPFGCAALLDEDVEINFQEETTPNDVVSVIATQPLTGNETWQRMKPGQFAFFHFGERIEDNAHVLMDVGFAPNRPGCQAPSQPLDEGGSHHHHHH”, which “soluble on expression in E. coli” value is on record?
Answer: soluble

Question: With “GHMLVYNQEELVRFVEEAKQYARYGKVADYIPALGKANPNELSIAIYTPDDEVVSAGDVTVKVTLQSISKIIALALVLIDRGEDEVFHKVGMEPTDYPFHSIAKLEEKPAKPLNPMINAGALVVTSMIQGGSVSERLERLLAFVRRLAGNERISYSDEVARSEFETAFLNRSLCYFLKQHRIIDEDVEELMELYTKQCAIEMTCIDLARIGLVLALDGRDPHSSEPLMPLDVARICKTFMVTCGMYNSSGEFAIKVGIPAKSGVSGGILAAVPGRCGIGVFGPALDDKGNSLTGVKLLERLSKTYSLSIF” as the sequence, how does the “soluble on expression in E. coli” value read?
Answer: soluble

Question: Which “soluble on expression in E. coli” value does the source give for “MAKLSGSIDVPLPPEEAWMHASDLTRYREWLTIHKVWRSKLPEVLEKGTVVESYVEVKGMPNRIKWTIVRYKPPEGMTLNGDGVGGVKVKLIAKVAPKEHGSVVSFDVHLGGPALLGPIGMIVAAALRADIRESLQNFVTVFAG” here?
Answer: soluble

Question: For “MGSDKIHHHHHHMIKLKTFGSFTVGNDISSVQEGAWRSEKLEKLFVYLAMNRNRGVCIEDISEAIWQVEEETDNPVGALKNLAYRLRKALRDASFDEECIVSVRGGLYKWNDDVEVTIDVEEFDRYINEAEMAFCRSKETAIESYEKAIALYHGDFLPLRTDTHWFMTLNAFYHSRYVNTVKALAKLYIDTGCYEKLEQLCIRAIVYERSDEQIYSYLIMARMRTKKVQMAFDTYETAKAIMDKDLGVRKTVMLNKVYEELLSVTKGVSSYNIDEVKEDINEESMEGVFMCGYPVFKEIYHLEVRKSARSTIPESLVLVTVVPMYSSQPDKNHSQMKDSMHTLERALRKCLRVGDVAAKYSDSQYIVLLSKCSCDTASDVMKRIIDRFNHTCDTHSNMTIHFDIEPVSCYSSFVSDK”, which “soluble on expression in E. coli” value is on record?
Answer: not soluble

Question: For “MGSDKIHHHHHHMSNGGRLVSQLEAEGSTHLTLPIHKKSLSSLWQIRPLRQLIEEHQPDIVHVRSRVPAWLTHFALRKIPANKRPHLISTVHGFYSVNRYSAIMTQAEKVIAVSDSVVKYITDHYKNCPPQDIVRIYRGIDPAAFPHNYQPSAQWFNQVFNDFPELENKFLLCLPGRITRLKGHESLIELMQQLHSQYPQLHAVIVGGADVKKQAYLSELQNTIQSKGLADKITFVGHRSDIREWLAFSDIVLSLSNQAETFGRTALEALSVGTPVIGWNRGGVAEILSHVYPQGLVEAENEKALLETVKHHIEQPQTVAPVTMFSLKDMCDQTLELYQSVLN”, which “soluble on expression in E. coli” value is on record?
Answer: not soluble

Question: For “MAHHHHHHMSTRTILTAGEAAEVLASVRYVLLDVDGVLWAGKHVLPNIPETLLYLRLREKQIRFLTNNASISRAGLVREFQRRGIQGVREGEVYNSGFAAALRLQSLFTANKSTGSGRPLVERNIFVIGEEGLHEELRRVLAPGYIAYGMELHDAEKCGGYDAHVVASAWKQRVLPAPLQSSATSCGIAATGHAAGGISISDLSPAAVVVGLDMHFNMLKLAYASLCLQERPAAQTAGTSSSTPTYFIATNEDPQIPVGEDFLLLPGAGGMVSALRTVSGRSPDFVCGKPHVDMAKVFFEAEGITDPQQCLMVGDRLTTDIAFGNAAGCKTMLVLSGAEKMDRVRQAERDGHVSLLPDFIAPSLAIFLPPA”, which “soluble on expression in E. coli” value is on record?
Answer: soluble

Question: For “SEKADEKTYDLRDPSQLVALFTENENEDFIKISLSKYIESLIQSHNMASYNIVFLYDETRSISRYHSNQIYEAASSATDKKDILLILHSGGGQIEPAYLISKTCKSLTKKKFVVGIPRRAKSAATLISLGADEIHMGLMSELGPIDPQIGGYPALGLSNALNTLAGLACRFPDSADMFAKYLTDNLNLKDLGYFERVSESASQYAERLLAGKKFPAPSTAQSLANHFVNHYKDHGFVIDSDEATNLLGSNIIKQNTAEYLFANELYKFLDFASF”, which “soluble on expression in E. coli” value is on record?
Answer: not soluble

Question: Which “soluble on expression in E. coli” value does the source give for “MGSDKIHHHHHHMNRTQLSQLAVLSAVAAHGSFRGAAKELGIAPSAVSHAVGSLEASLGVRLLARTTRSVAATEEGKRLLERLRPALDDIAEALQRAAEARDRPAGKLRITAPRFAADLILAPRLGDFLGRYPDTVLEIANEDGFTNIVEEGYDAGIRLGESLEADMVAVKVGPELKSAVVAAPSYFERFQRPRHPRDLAGHRCIRRRFSNGTIYRWEFEKEGEELTVSVNGPLILGEDRPIIEAATGGAGLAYLFEPRVSGYVAEGKLVRVLEDWCAPYAGPFLYYPTRRLMRPALRAFIDFFRHSG” here?
Answer: not soluble

Question: Which “soluble on expression in E. coli” value does the source give for “MGSDKIHHHHHHLKICLSCSARFTDSGWRCPVCFSTPEQVDGFLSFAPAQAKSDEGFQPHHFNELAQAEAEHFWFRSRNRLIIWALHRFFPDARKFLEIGCGTGFVLSGIAQDNPRLEISGSEIHSAGLSHAADRARNATLFQMDARDIPFDSEFDVIGAFDVLEHIEEDSQVLLQMFRAISPGGGMIVTVPQHRFLWSQQDEHACHVRRYEAQELQDKVEKAGFRVEKATSFVSLLLPLMFISRLSKRKPVENYDPTQEFRIKKWVNTILEGILDLERLMIRGRVSFPMGGSRLLIARKPAGA” here?
Answer: not soluble

Question: For “MGHHHHHHSHGRLTLSAQHISHRPCLLSYSLLFWKVHHLFLEGFPCSPRLDEMSFHQFPQHPVHVSVVHLPIVYKGSMTQVSPH”, which “soluble on expression in E. coli” value is on record?
Answer: not soluble

Question: For “MEPRTIACPHKGCTKMFRDNSAMRKHLHTHGPRVHVCAECGKAFVESSKLKRHQLVHTGEKPFQCTFEGCGKRFSLDFNLRTHVRIHTGDRPYVCPFDGCNKKFAQSTNLKSHILTHAKAKNNQ”, which “soluble on expression in E. coli” value is on record?
Answer: soluble

Question: For “MSLTLPSEKPATDVAAQCFLNALIRETTDWKLTEYPPDELIIPLDEQKSLHFRVAYFSPTQHHRFAFPARLVTASGSYPVDFTTLSRLIIDKLRHQLFLPVPLCETFHQRVLESHAHTQQAIDARHDWTALREKALNFGEAEQALLTGHAFHPAPKSHEPFNRREAERYLPDMAPHFPLRWFSVDKTQIAGESLHLNLQQRLTRFAAENAPQLLNELSDNQWLFPLHPWQGEYLLQQGWCQALVAKGLIKDLGEAGTSWLPTTSSRSLYCATSRDMIKFSLSVRLTNSIRTLSVKEVKRGMRLARLAQTDGWQMLQVRFPTFRVMQEDGWAGLLDLNGNIMQESLFALRENLLVDQPKSQTNVLVSLTQAAPDGGDSLLVSAVKRLSDRLGITVQQAAHAWVDAYCQQVLKPLFTAEADYGLVLLAHQQNILVQMLGDLPVGFIYRDCQGSAFMPHATDWLDSIGEAQAENEGHHHHHH”, which “soluble on expression in E. coli” value is on record?
Answer: not soluble
